1 protein from publication doi:10.1101/2024.12.03.626531, “Lineage–specific amino acids define functional attributes of the protomer-protomer interfaces for the Rad51 and Dmc1 recombinases” (bioRxiv, 2024) can be followed below.

The data set concerns the molecule itself. Kind of data set: cryo-EM structure; helical filament: ScDmc1 5 µM with 0.25 µM 96-mer ssDNA in HR buffer supplemented with 1.5 mM CaCl2, 30°C for 5 minutes; 8 mM CHAPSO added before freezing.

B1: S. cerevisiae Dmc1 (natural protein, UniProt P25453 1-334, looked up)
chain: MSVTGTEIDSDTAKNILSVDELQNYGINASDLQKLKSGGIYTVNTVLSTTRRHLCKIKGLSEVKVEKIKEAAGKIIQVGFIPATVQLDIRQRVYSLSTGSKQLDSILGGGIMTMSITEVFGEFRCGKTQMSHTLCVTTQLPREMGGGEGKVAYIDTEGTFRPERIKQIAEGYELDPESCLANVSYARALNSEHQMELVEQLGEELSSGDYRLIVVDSIMANFRVDYCGRGELSERQQKLNQHLFKLNRLAEEFNVAVFLTNQVQSDPGASALFASADGRKPIGGHVLAHASATRILLRKGRGDERVAKLQDSPDMPEKECVYVIGEKGITDSSD
notes: Dmc1 meiotic recombinase, Saccharomyces cerevisiae, full-length wild type; Helical filament on a 96-nt ssDNA with ATP; 6.35 monomers per turn; Expressed as 6XHis-ScDmc1; no removal of the tag is described; also called ScDmc1; yeast Dmc1; source: E. coli BL21 (DE3) Rosetta2, purified (Talon resin, heparin sepharose)
As to B1, the binding result is listed as “binds”.
